Measured values from patent US20090282582A1, “ENVIRONMENTAL STRESS RESPONSIVE PROMOTER AND METHOD OF TISSUE-SPECIFIC GENE EXPRESSION USING THE SAME” (RIKEN, priority 2006, published 2009).

Key:
[1] = test system: Arabidopsis thaliana (columbia ecotype) plant body; assay: full-length cDNA microarray analysis of gene expression levels after environmental stress application; settings: in vivo
Method in brief: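 Three-week-old Arabidopsis grown at 22° C. on a 16 h light/8 h dark cycle were stressed by 4° C. cold, 2 h open-plate dehydration, or root application of MS medium containing 250 mM NaCl or 100 μM ABA. Total RNA/mRNA from stressed and unstressed plants was reverse transcribed with Cy3/Cy5 dUTP and hybridized to full-length cDNA microarrays.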

[2] = test system: transgenic Arabidopsis thaliana plant body (luciferase reporter gene); assay: luciferase assay of promoter::LUC transgenic plants after environmental stress application; assay type: in vivo; settings: for Tissue in which specific induction of expression is realized: ABA stress (100 μM ABA)
Method in brief: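 Arabidopsis lines carrying promoter::luciferase, 10 days after sowing on MS agar, sprayed with 1 mM luciferin (0.01% Triton-X), 5 min dark, imaged by ARGUS before stress. Stresses: 4° C, 2 h air dehydration, 250 mM NaCl or 100 μM ABA to roots; luminescence at 2, 5, 10 h.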

B1: Promoter of RAFL08-17-O07: environmental stress responsive promoter DNA, SEQ ID NO: 8, upstream of At2g29450 (glutathione S-transferase) (nucleic acid, listed as Arabidopsis thaliana)
DNA: CGGTGGCAAAACAATTGGATTTTTGGACTTGGTCGCAGGAAGTATGATCCCGTTTTGTCTTGCTCGAGGTTGGGAAGGTATGGGAATTGATATGATTCCAGAGGAAAAGTTTCCAGAGCTAAACAGATGGATCAAAAATTTGAAAGAAATTGAGATCGTGAGAGAATGTATTCCTCCTAGAGAGGAACAAATTGAGCATATGAAGAAAGTTGTAGAAAGAATCAAATCAGCCTAAGAGACAACAATGATACTCTTCGATCAGTAGATGTTAACTATATGTTTGTGTAATCTTGTTATAATAGTTTGTATGAACAATAAATGAAACATTTGTATGAACAATTAGTGTTTTTACTAAATTCTAATGTCAATTAATTATTATAAACATTTTAAATGTAGTAGTATTCAATTTCTTACAAATCATAAGAAATTGGTTCATAAACCTGGAGTTTTCATATGAAAGAAAAGTAGATAAAAGCTATAATTTAGTCAAACCATCCTTCTTAATAAAACCACAACTATGATTAAATGTGAACATGTATTTCGACACGTAAGAAGTTGTGTAAACAGAGGAAAGTACAACGGACATGTGGGTCTATTTGTTGCGGCACAATATAACAAATTTCTTTAGTATATTTTTAGTATCGTGAGGTGGTGAGTCTTGTAACCATAGAAAATTCACCGATACTTTATAACATTGTTGGAAGGAAAATTCAGCAAACAAGTTCGTAGATGGAGAAACGGAAAAACCAACGCCTATTATAACAACAACATTTTTAATATATGCCAAAAGGAACATCAAATAACAGATTAGTACTAATTCTTTTTTTATAGCTCAGACTATAGAGTTGTTTGTTTTCTTGGGCGTCAATATAACAAACGAGAATGACAAATGGTTTTAAAGCTGTTGATGTTTCATACACAGACAAAATGGATCAATTATGAAGAACCACGATAAAGTGATGGGTATAATTGGGGAAGCAGAAGAAATTCTTGACGAAGCATGGGGTTGTCTTCAGAAAATGAATGGATCAAGTCAAGGTACACATGCTCCAGGGATAAGGCAAGGTTAGGAATTAGGACACATCTCCACTTACTAAAAAAGAGATAAAAAAAAATTATAAAGGGAACGTTATAAATATGTTGTAAAGTCAACATCTGTTTCCTTCTAGACTCTTCGCATTTACATCACACTGCCGACCATATAAAACGGCAAAGTTCGTCGTCGTTTTATCACAAGACCATCAACACCATAAGGCTATAAATCCAAGCTAAAAGGTAGTGATTAACTCCACAAAACCAGAAAAAACTACATTTCTAACATATAGAAGAAACAGAGAAAAAGAGAGAGAGACCCCTA
Environmental stress type to which the promoter responds [1]: Dehydration and salt | Tissue in which specific induction of expression is realized [2]: Root tissue | Tissue in which specific induction of expression is realized ([2]; listed as promoter of RAFL08-17-O07): root tissue | activity to induce gene expression compared with other promoters ([2]; in vivo): lower than that of other promoters | Tissue allowing specific induction ([2]; summary over stress types): Root tissue
